Results from patent US20240100176A1 (Eli Lilly, published 2024).

How the values were obtained:
[1] = molecular target: T1, hexahistidine tagged human IL-4Rα ECD K22D (human, UniProt P24394 26-232); assay: capture ELISA: Ab1 on anti-human IgG Fc, His-tagged receptor at 1 µg/mL, anti-His HRP
T1 construct: not shown: hexahistidine tag
Text: (§1) Example 2d. […] Briefly, thirty surface amino acid residue substitutions were introduced individually into hexahistidine tagged human IL-4Rα extra cellular domain (ECD) as follows: K2D, E6R, K22D, P26R, T31R, F41A, L42G, L43G, E45R, E52R, G56R, D66R, A71R, Q82G, K87D, E94R, H107A, D108R, P124R, D125R, D143R, R148D, L155R, R160D, S164R, S168R, Q181R, P192R, K195D, or H197G. Each mutant protein having a single amino acid residue substitution as described above was transiently expressed in CHO cells and purified using standard immobilized metal affinity chromatography techniques. […] The plates were then washed 3 times with PBST and the exemplified human IL-4Rα antibody was added to the wells at a final concentration of 1 μg/mL in PBS-casein and incubated for 1 hour at room temperature. The plates were washed 3 times with PBST, the IL-4Rα mutant proteins were serially diluted 5-fold from 1 μg/mL for 3 points. in PBS-casein and added to the plate at 50 μL/well and incubated for 1 hour at room temperature. The plates were washed 3 times with PBST and a 1000-fold dilution of anti-histidine tag antibody HRP conjugate (R&D Systems, Cat. #MAB050H) in PBS-casein was added and incubated for 45 minutes at room temperature. The plates were washed 3 times, TMB substrate (Pierce, Cat. #34028) was added per manufacturer instructions, the reaction was quenched with H₂SO₄, and absorbance was read at 450 nm on an ELISA plate reader.

[2] = molecular target: T2, hexahistidine tagged human IL-4Rα ECD K87D (human, UniProt P24394 26-232); assay: as above
T2 construct: not shown: hexahistidine tag
Text: as §1

[3] = molecular target: T3, hexahistidine tagged human IL-4Rα ECD P124R (human, UniProt P24394 26-232); assay: as above
T3 construct: not shown: hexahistidine tag
T3 sequence (P24394 26-232 P149R): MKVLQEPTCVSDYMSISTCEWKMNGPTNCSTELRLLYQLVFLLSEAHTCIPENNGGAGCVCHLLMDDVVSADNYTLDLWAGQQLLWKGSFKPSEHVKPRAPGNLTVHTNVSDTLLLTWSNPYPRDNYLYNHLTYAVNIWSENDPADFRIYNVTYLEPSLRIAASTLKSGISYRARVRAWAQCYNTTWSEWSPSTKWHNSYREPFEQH
Text: as §1

[4] = molecular target: T4, hexahistidine tagged human IL-4Rα ECD D125R (human, UniProt P24394 26-232); assay: as above
T4 construct: not shown: hexahistidine tag
T4 sequence (P24394 26-232 D150R): as the sequence (P24394 26-232 P149R) above, with R124P, D125R counted along it
Text: as §1

[5] = molecular target: T5, hexahistidine tagged human IL-4Rα ECD R148D (human, UniProt P24394 26-232); assay: as above
T5 construct: not shown: hexahistidine tag
T5 sequence (P24394 26-232 R173D): as the sequence (P24394 26-232 P149R) above, with R124P, R148D counted along it
Text: as §1

[6] = molecular target: T6, hexahistidine tagged human IL-4Rα ECD K195D (human, UniProt P24394 26-232); assay: as above
T6 construct: not shown: hexahistidine tag
Text: as §1

[7] = molecular target: T1, hexahistidine tagged human IL-4Rα ECD …; assay: capture ELISA: Ab1 on anti-human IgG Fc, His-tagged receptor at 0.2 µg/mL, anti-His HRP
Text: as §1

[8] = molecular target: T7, hexahistidine tagged human IL-4Rα ECD T31R (human, UniProt P24394 26-232); assay: as above
T7 construct: not shown: hexahistidine tag
T7 sequence (P24394 26-232 T56R): as the sequence (P24394 26-232 P149R) above, with T31R, R124P counted along it
Text: as §1

[9] = molecular target: T8, hexahistidine tagged human IL-4Rα ECD E52R (human, UniProt P24394 26-232); assay: as above
T8 construct: not shown: hexahistidine tag
T8 sequence (P24394 26-232 E77R): as the sequence (P24394 26-232 P149R) above, with E52R, R124P counted along it
Text: as §1

[10] = molecular target: T9, hexahistidine tagged human IL-4Rα ECD A71R (human, UniProt P24394 26-232); assay: as above
T9 construct: not shown: hexahistidine tag
T9 sequence (P24394 26-232 A96R): as the sequence (P24394 26-232 P149R) above, with A71R, R124P counted along it
Text: as §1

[11] = molecular target: T10, hexahistidine tagged human IL-4Rα ECD E94R (human, UniProt P24394 26-232); assay: as above
T10 construct: not shown: hexahistidine tag
T10 sequence (P24394 26-232 E119R): as the sequence (P24394 26-232 P149R) above, with E94R, R124P counted along it
Text: as §1

[12] = molecular target: T11, hexahistidine tagged human IL-4Rα ECD D143R (human, UniProt P24394 26-232); assay: as above
T11 construct: not shown: hexahistidine tag
T11 sequence (P24394 26-232 D168R): as the sequence (P24394 26-232 P149R) above, with R124P, D143R counted along it
Text: as §1

[13] = molecular target: T12, hexahistidine tagged human IL-4Rα ECD L155R (human, UniProt P24394 26-232); assay: as above
T12 construct: not shown: hexahistidine tag
T12 sequence (P24394 26-232 L180R): as the sequence (P24394 26-232 P149R) above, with R124P, L155R counted along it
Text: as §1

[14] = molecular target: T13, hexahistidine tagged human IL-4Rα ECD R160D (human, UniProt P24394 26-232); assay: as above
T13 construct: not shown: hexahistidine tag
T13 sequence (P24394 26-232 R185D): as the sequence (P24394 26-232 P149R) above, with R124P, R160D counted along it
Text: as §1

[15] = molecular target: T14, hexahistidine tagged human IL-4Rα ECD S164R (human, UniProt P24394 26-232); assay: as above
T14 construct: not shown: hexahistidine tag
T14 sequence (P24394 26-232 S189R): as the sequence (P24394 26-232 P149R) above, with R124P, S164R counted along it
Text: as §1

[16] = molecular target: T15, hexahistidine tagged human IL-4Rα ECD Q181R (human, UniProt P24394 26-232); assay: as above
T15 construct: not shown: hexahistidine tag
T15 sequence (P24394 26-232 Q206R): as the sequence (P24394 26-232 P149R) above, with R124P, Q181R counted along it
Text: as §1

[17] = molecular target: T6, hexahistidine tagged human IL-4Rα ECD …; assay: as above
Text: as §1
Target sequence in this assay (P24394 26-232 K220D): as the sequence (P24394 26-232 P149R) above, with R124P, K195D counted along it

[18] = molecular target: T16, hexahistidine tagged human IL-4Rα ECD H197G (human, UniProt P24394 26-232); assay: as above
T16 construct: not shown: hexahistidine tag
T16 sequence (P24394 26-232 H222G): as the sequence (P24394 26-232 P149R) above, with R124P, H197G counted along it
Text: as §1

T1 sequence (P24394 26-232 K47D): as the sequence (P24394 26-232 P149R) above, with K22D, R124P counted along it

B1: anti-human IL-4Rα antibody Ab1 (antibody, human IgG4 S228P, kappa)
heavy: QVQLVESGGGLVQPGGSLRLSCVASGFTFSHSSMNWVRQAPGKGLEWVSYISRATGAVYYADSVKGRFTISRDNAKNSLYLQMNSLRDEDTAVYYCAREPVFDYWGQGTLVTVSSASTKGPCVFPLAPCSRSTSESTAALGCLVKDYFPEPVTVSWNSGALTSGVHTFPAVLQSSGLYSLSSVVTVPSSSLGTKTYTCNVDHKPSNTKVDKRVESKYGPPCPPCPAPEFLGGPSVFLFPPKPKDTLMISRTPEVTCVVVDVSQEDPEVKFNWYVDGVEVHNAKTKPREEQFNSTYRVVSVLTVLHQDWLNGKEYKCKVSNKGLPSSIEKTISKAKGQPREPQVYTLPPSREEMTKNQVSLTCLVKGFYPSDICVEWESNGQPENNYKTTPPVLDSDGSFFLYSRLTVDKSRWQQGNVFSCSVMHEALHNHYTQKSLSLSLG
light: DIQMTQSPSAMSASVGDRVTITCRASQDISNYLAWFQQKPGKVPTRLIYAASSLQSGVPSRFSGSGSGTEFTLTISSLQPEDFATYYCLQWSSYPRTFGQGTKVEIKRTVAAPSVFIFPPSDEQLKSGTASVVCLLNNFYPREAKVQWKVDNALQSGNSQESVTEQDSKDSTYSLSSTLTLSKADYEKHKVYACEVTHQGLSSPVTKSFNRGEC
notes: human kappa light chain; also called anti-human IL-4Rα Ab1; unconjugated Ab1
- ELISA (OD450) [1]: 1.67 OD450
- ELISA (OD450) [2]: 1.75 OD450
- ELISA (OD450) [3]: 1.84 OD450
- ELISA (OD450) [4]: 1.79 OD450
- ELISA (OD450) [5]: 1.76 OD450
- ELISA (OD450) [6]: 1.91 OD450
- ELISA (OD450) [7]: 1.3 OD450
- ELISA (OD450) [8]: 1.49 OD450
- ELISA (OD450) [9]: 1.71 OD450
- ELISA (OD450) [10]: 1.57 OD450
- ELISA (OD450) [11]: 1.64 OD450
- ELISA (OD450) [12]: 1.69 OD450
- ELISA (OD450) [13]: 1.68 OD450
- ELISA (OD450) [14]: 1.7 OD450
- ELISA (OD450) [15]: 1.77 OD450
- ELISA (OD450) [16]: 1.71 OD450
- ELISA (OD450) [17]: 1.65 OD450
- ELISA (OD450) [18]: 1.6 OD450
